Reference: paper PMC4404914, “Adenoviral L4 33K forms ring-like oligomers and stimulates ATPase activity of IVa2: implications in viral genome packaging” (Frontiers in Microbiology, 2015)

B1: 6His-tagged HAdV5 IVa2, purified from E. coli (natural protein)
chain: METRGRRPAALQHQQDQPQAHPGQRAARSAPLHRDPDYADEDPAPVERHDPGPSGRAPTTAVQRKPPQPAKRGDMLDRDAVEQVTELWDRLELLGQTLKSMPTADGLKPLKNFASLQELLSLGGERLLADLVRENMRVRDMLNEVAPLLRDDGSCSSLNYQLHPVIGVIYGPTGCGKSQLLRNLLSSQLISPTPETVFFIAPQVDMIPPSELKAWEMQICEGNYAPGPDGTIIPQSGTLRPRFVKMAYDDLILEHNYDVSDPRNIFAQAAARGPIAIIMDECMENLGGHKGVSKFFHAFPSKLHDKFPKCTGYTVLVVLHNMNPRRDMAGNIANLKIQSKMHLISPRMHPSQLNRFVNTYTKGLPLAISLLLKDIFRHHAQRSCYDWIIYNTTPQHEALQWCYLHPRDGLMPMYLNIQSHLYHVLEKIHRTLNDRDRWSRAYRARKTPK
notes: IVa2 of human adenovirus serotype 5; synthetic gene cassette, codon-optimized for bacteria, in pET28a (pET28-IVa2); the results speak of the full-length IVa2 band; A faster migrating band, perhaps a degradation product of IVa2, was also in the preparation; also called purified IVa2; source: E. coli BL21 (DE3) pLysS, purified (HiTrap NiNTA, HiPrep 16/10 SP-XL cation exchange)

Assays:
[1] = target: B1; assay: cell-based or functional assay
[2] = target: the molecule itself; assay: transmission electron microscopy (negative stain); purified protein on glow-discharged carbon-coated formvar grids, rinsed with 20 mM Tris pH 7.5, 2% uranyl acetate

Binder	ATPase activity of purified IVa2 (inorganic phosphate after 30 min at 37°C) with 33K and HAdV5 Tp-DNA; no significant increase with only IVa2 + 33K, 33K + Tp-DNA or IVa2 + Tp-DNA [1] [fold]	binding result [2]
6His-tagged HAdV5 L4 33K, purified from E. coli (natural protein) MAPKKKLQLPPPPTDEEEYWDSQAEEVLDEEEEDMMEDWESLDEEASEVEEVSDETPSPSVAFPSPAPQKSATGSSMATTSAPQAPPALPVRRPNRRWDTTGTRAAHTAPAAAAAAATAAATQKQRRPDSKTLTKPKKSTAAAAAGGGALRLAPNEPVSTRELRNRIFPTLYAIFQQSRGQEQELKIKNRSLRSLTRSCLYHKSEDQLRRTLEDAEALFSKYCALTLKD	3	
B1		binds
